# In patent US20240209078A1 (Amgen, published 2024):
# How the values were obtained:
# Experiment in all cases: cell-based or functional assay
# [1] = target: T1, human CDH3 (Cadherin-3, P-Cadherin) (human, UniProt P22223 108-829)
# human MSLN (mesothelin) [2] = target: T2, human MSLN (mesothelin) (human, UniProt Q13421 37-598)
# [3] = target: T1, human CDH3 (Cadherin-3, P-Cadherin); remark: listed apart in the source
# human MSLN (mesothelin) [4] = target: T2, human MSLN (mesothelin); remark: listed apart in the source
# human CDH3 = human CDH3 (human, UniProt P22223 108-829)
# human MSLN = human MSLN (human, UniProt Q13421 37-598)
Binder,"cytotoxicity EC50, HCT 116 KO MSLN cells [1]","cytotoxicity EC50, HCT 116 KO CDH3 cells (human MSLN (mesothelin) [2])","cytotoxicity EC50, GSU KO MSLN cells [3]","cytotoxicity EC50, GSU KO CDH3 cells (human MSLN (mesothelin) [4])","EC50 GSU KO MSLN (cytotoxicity; cells CDH3+, MSLN-) (human CDH3)","EC50 GSU wt (cytotoxicity; cells CDH3+, MSLN+) (human CDH3)","Fold selectivity gap, GSU KO MSLN against GSU wt (human CDH3)","EC50 GSU KO CDH3 (cytotoxicity; cells CDH3-, MSLN+) (human MSLN)","EC50 GSU wt (cytotoxicity; cells CDH3+, MSLN+) (human MSLN)","Fold selectivity gap, GSU KO CDH3 against GSU wt (human MSLN)"
MS 15-B12 CC × I2L × (G4Q)3 × scFc × (G4Q)3 × CH3 15-E11 CC × I2L (bispecific antibody) QVQLQESGPGLVKPSETLSLTCTVSGGSISSSSYFWGWIRQPPGKCLEWIGNIYYSGSSNYNPSLKSRVTISVDTSKNQFSLKLSSVTAADTAVYYCARLPRGDRDAFDIWGQGTMVTVSSGGGGQGGGGQGGGGQDIVMTQSPSSLSASVGDRVTITCRASQGISNYLAWYQQKPGKVPKLLIYAASTLQSGVPSRFSGSGSGTDFTLTISSLQPEDFATYYCQQSYSTPFTFGCGTKVEIKSGGGGQEVQLVESGGGLVQPGGSLKLSCAASGFTFNKYAMNWVRQAPGKGMEWVARIRSKYNNYATYYADAVKDRFTISRDDSKNTLYLQMNNLKTEDTAVYYCVRAGNFGSSYISYFAYWGQGTLVTVSSGGGGQGGGGQGGGGQQTVVTQEPSLTVSPGGTVTITCGSSTGAVTSGNYPNWIQKKPGQAPRGLIGGTKFLAPGTPARFSGSLEGGKAALTLSGVQPEDEAEYYCVLYYSNRWVFGSGTKLTVLGGGGQGGGGQGGGGQCPPCPAPELLGGPSVFLFPPKPKDTLMISRTPEVTCVVVDVSHEEPEVKFNWYVDGVEVHNAKTKPCEEQYGSTYRCVSVLTVLHQDWLNGKEYKCKVSNKALPAPIEKTISKAKGQPREPQVYTLPPSREEMTKNQVSLTCLVKGFYPSDIAVEWESNGQPENNYKTTPPVLDSDGSFFLYSKLTVDKSRWQQGNVFSCSVMHEALHNHYTQKSLSLSPGKGGGGQGGGGQGGGGQGGGGQGGGGQGGGGQCPPCPAPELLGGPSVFLFPPKPKDTLMISRTPEVTCVVVDVSHEEPEVKFNWYVDGVEVHNAKTKPCEEQYGSTYRCVSVLTVLHQDWLNGKEYKCKVSNKALPAPIEKTISKAKGQPREPQVYTLPPSREEMTKNQVSLTCLVKGFYPSDIAVEWESNGQPENNYKTTPPVLDSDGSFFLYSKLTVDKSRWQQGNVFSCSVMHEALHNHYTQKSLSLSPGKGGGGQGGGGQGGGGQQVQLVQSGAEVKKPGASVKVSCKASGYTFTNYWMNWVRQAPGQCLEWMGNIAYGVKGTNYNQKFQGRVTMTVDTSSSTAYMELSRLRSDDTAVYYCATRYFYVMDYWGQGTLVTVSSGGGGQGGGGQGGGGQDIQMTQSPSSLSASVGDRVTITCRASQDISNYLNWYQQKPGKVPKLLIYYTSRLHSGVPSRFSGSGSGTDFTLTISSLQPEDVATYYCVQYAQFPLTFGCGTKVEIKSGGGGQEVQLVESGGGLVQPGGSLKLSCAASGFTFNKYAMNWVRQAPGKGMEWVARIRSKYNNYATYYADAVKDRFTISRDDSKNTLYLQMNNLKTEDTAVYYCVRAGNFGSSYISYFAYWGQGTLVTVSSGGGGQGGGGQGGGGQQTVVTQEPSLTVSPGGTVTITCGSSTGAVTSGNYPNWIQKKPGQAPRGLIGGTKFLAPGTPARFSGSLEGGKAALTLSGVQPEDEAEYYCVLYYSNRWVFGSGTKLTVL,3.5 pM,29.2 pM,1720 pM,2900 pM,–,–,–,–,–,–
MS 15-B12 CC × 6H10.09 × (G4) × heFc (A) * heFc (B) × (G4) × CH3 15-E11 CC × 6H10.09 (Seq ID 326 + 327) (bispecific antibody) chain 1: not shown chain 2: DKTHTCPPCPAPELLGGPSVFLFPPKPKDTLMISRTPEVTCVVVDVSHEDPEVKFNWYVDGVEVHNAKTKPCEEQYGSTYRCVSVLTVLHQDWLNGKEYKCKVSNKALPAPIEKTISKAKGQPREPQVYTLPPSRKEMTKNQVSLTCLVKGFYPSDIAVEWESNGQPENNYKTTPPVLKSDGSFFLYSKLTVDKSRWQQGNVFSCSVMHEALHNHYTQKSLSLSPGKGGGGQVQLVQSGAEVKKPGASVKVSCKASGYTFTNYWMNWVRQAPGQCLEWMGNIAYGVKGTNYNQKFQGRVTMTVDTSSSTAYMELSRLRSDDTAVYYCATRYFYVMDYWGQGTLVTVSSGGGGSGGGGSGGGGSDIQMTQSPSSLSASVGDRVTITCRASQDISNYLNWYQQKPGKVPKLLIYYTSRLHSGVPSRFSGSGSGTDFTLTISSLQPEDVATYYCVQYAQFPLTFGCGTKVEIKSGGGGSEVQLVESGGGLVQPGGSLKLSCAASGFTFNKYAMNWVRQAPGKGMEWVARIRSKYNNYATYYADAVKDRFTISRDDSKNTLYLQMNNLKTEDTAVYYCVRAGNFGSSYISYFAYWGQGTLVTVSSGGGGSGGGGSGGGGSQTVVTQEPSLTVSPGGTVTITCGSSTGAVTSGNYPNWIQKKPGQAPRGLIGGTKFLAPGTPARFSGSLEGGKAALTLSGVQPEDEAEYYCVLYYSNRWVFGSGTKLTVL,–,–,–,–,533 pM,3.2 pM,165 fold,391 pM,3.2 pM,121 fold
CH3 15-E11 CC × I2L × (G4Q)3 × scFc × (G4Q)3 × MS 15-B12 CC × I2L (bispecific antibody) QVQLVQSGAEVKKPGASVKVSCKASGYTFTNYWMNWVRQAPGQCLEWMGNIAYGVKGTNYNQKFQGRVTMTVDTSSSTAYMELSRLRSDDTAVYYCATRYFYVMDYWGQGTLVTVSSGGGGQGGGGQGGGGQDIQMTQSPSSLSASVGDRVTITCRASQDISNYLNWYQQKPGKVPKLLIYYTSRLHSGVPSRFSGSGSGTDFTLTISSLQPEDVATYYCVQYAQFPLTFGCGTKVEIKSGGGGQEVQLVESGGGLVQPGGSLKLSCAASGFTFNKYAMNWVRQAPGKGMEWVARIRSKYNNYATYYADAVKDRFTISRDDSKNTLYLQMNNLKTEDTAVYYCVRAGNFGSSYISYFAYWGQGTLVTVSSGGGGQGGGGQGGGGQQTVVTQEPSLTVSPGGTVTITCGSSTGAVTSGNYPNWIQKKPGQAPRGLIGGTKFLAPGTPARFSGSLEGGKAALTLSGVQPEDEAEYYCVLYYSNRWVFGSGTKLTVLGGGGQGGGGQGGGGQCPPCPAPELLGGPSVFLFPPKPKDTLMISRTPEVTCVVVDVSHEEPEVKFNWYVDGVEVHNAKTKPCEEQYGSTYRCVSVLTVLHQDWLNGKEYKCKVSNKALPAPIEKTISKAKGQPREPQVYTLPPSREEMTKNQVSLTCLVKGFYPSDIAVEWESNGQPENNYKTTPPVLDSDGSFFLYSKLTVDKSRWQQGNVFSCSVMHEALHNHYTQKSLSLSPGKGGGGQGGGGQGGGGQGGGGQGGGGQGGGGQCPPCPAPELLGGPSVFLFPPKPKDTLMISRTPEVTCVVVDVSHEEPEVKFNWYVDGVEVHNAKTKPCEEQYGSTYRCVSVLTVLHQDWLNGKEYKCKVSNKALPAPIEKTISKAKGQPREPQVYTLPPSREEMTKNQVSLTCLVKGFYPSDIAVEWESNGQPENNYKTTPPVLDSDGSFFLYSKLTVDKSRWQQGNVFSCSVMHEALHNHYTQKSLSLSPGKGGGGQGGGGQGGGGQQVQLQESGPGLVKPSETLSLTCTVSGGSISSSSYFWGWIRQPPGKCLEWIGNIYYSGSSNYNPSLKSRVTISVDTSKNQFSLKLSSVTAADTAVYYCARLPRGDRDAFDIWGQGTMVTVSSGGGGQGGGGQGGGGQDIVMTQSPSSLSASVGDRVTITCRASQGISNYLAWYQQKPGKVPKLLIYAASTLQSGVPSRFSGSGSGTDFTLTISSLQPEDFATYYCQQSYSTPFTFGCGTKVEIKSGGGGQEVQLVESGGGLVQPGGSLKLSCAASGFTFNKYAMNWVRQAPGKGMEWVARIRSKYNNYATYYADAVKDRFTISRDDSKNTLYLQMNNLKTEDTAVYYCVRAGNFGSSYISYFAYWGQGTLVTVSSGGGGQGGGGQGGGGQQTVVTQEPSLTVSPGGTVTITCGSSTGAVTSGNYPNWIQKKPGQAPRGLIGGTKFLAPGTPARFSGSLEGGKAALTLSGVQPEDEAEYYCVLYYSNRWVFGSGTKLTVL,8.5 pM,22.6 pM,3330 pM,171 pM,–,–,–,–,–,–
